B1: Transcription factor Dp-2 (Mus musculus), Q64163-4 (parent)
chain: MIISTPQRIANSGSVLIGNPYTPAPAMVTQTHIAEAAGWVPSDRKRAREFIDSDFSESKRSKKGDKNGKGLRHFSMKVCEKVQRKGTTSYNEVADELVSEFTNSNNHLAADSAYDQENIRRRVYDALNVLMAMNIISSLPTGKKRNQVDCNSAQECQNLEIEKQRRIERIKQKRAQLQELLLQQIAFKNLVQRNRQNEQQNQGPPAVNSTIQLPFIIINTSRKTVIDCSISSDKFEYLFNFDNTFEIHDDIEVLKRMGMSFGLESGKCSLEDLKIARSLVPKALEGYITDISTGPSWLNQGLLLNSTQSVSNLDPTTGATVPQSSVNQGLCLDAEVALATGQLPASNSHQSSSAASHFSESRGETPCSFNDEDEEDEEEDPSSPE

Variants of: B1
Conditions: with 1433e_mouse Ywhae

| Variant | effect of a mutation on the interaction |
| --- | --- |
| MIISTPQRIANSGSVLIGNPYTPAPAMVTQTHIAEAAGWVPSDRKRAREFIDADFSESKRSKKGDKNGKGLRHFSMKVCEKVQRKGTTSYNEVADELVSEFTNSNNHLAADSAYDQENIRRRVYDALNVLMAMNIISSLPTGKKRNQVDCNSAQECQNLEIEKQRRIERIKQKRAQLQELLLQQIAFKNLVQRNRQNEQQNQGPPAVNSTIQLPFIIINTSRKTVIDCSISSDKFEYLFNFDNTFEIHDDIEVLKRMGMSFGLESGKCSLEDLKIARSLVPKALEGYITDISTGPSWLNQGLLLNSTQSVSNLDPTTGATVPQSSVNQGLCLDAEVALATGQLPASNSHQSSSAASHFSESRGETPCSFNDEDEEDEEEDPSSPE [S53A] | disrupting interaction |
| MIISTPQRIANSGSVLIGNPYTPAPAMVTQTHIAEAAGWVPSDRKRAREFIDSDFSESKRAKKGDKNGKGLRHFSMKVCEKVQRKGTTSYNEVADELVSEFTNSNNHLAADSAYDQENIRRRVYDALNVLMAMNIISSLPTGKKRNQVDCNSAQECQNLEIEKQRRIERIKQKRAQLQELLLQQIAFKNLVQRNRQNEQQNQGPPAVNSTIQLPFIIINTSRKTVIDCSISSDKFEYLFNFDNTFEIHDDIEVLKRMGMSFGLESGKCSLEDLKIARSLVPKALEGYITDISTGPSWLNQGLLLNSTQSVSNLDPTTGATVPQSSVNQGLCLDAEVALATGQLPASNSHQSSSAASHFSESRGETPCSFNDEDEEDEEEDPSSPE [S61A] | disrupting interaction |
| MIISTPQRIANSGSVLIGNPYTPAPAMVTQTHIAEAAGWVPADRKRAREFIDSDFSESKRSKKGDKNGKGLRHFSMKVCEKVQRKGTTSYNEVADELVSEFTNSNNHLAADSAYDQENIRRRVYDALNVLMAMNIISSLPTGKKRNQVDCNSAQECQNLEIEKQRRIERIKQKRAQLQELLLQQIAFKNLVQRNRQNEQQNQGPPAVNSTIQLPFIIINTSRKTVIDCSISSDKFEYLFNFDNTFEIHDDIEVLKRMGMSFGLESGKCSLEDLKIARSLVPKALEGYITDISTGPSWLNQGLLLNSTQSVSNLDPTTGATVPQSSVNQGLCLDAEVALATGQLPASNSHQSSSAASHFSESRGETPCSFNDEDEEDEEEDPSSPE [S42A] | disrupting interaction |
| MIISTPQRIANSGSVLIGNPYTPAPAMVTQTHIAEAAGWVPSDRKRAREFIDSDFSEAKRSKKGDKNGKGLRHFSMKVCEKVQRKGTTSYNEVADELVSEFTNSNNHLAADSAYDQENIRRRVYDALNVLMAMNIISSLPTGKKRNQVDCNSAQECQNLEIEKQRRIERIKQKRAQLQELLLQQIAFKNLVQRNRQNEQQNQGPPAVNSTIQLPFIIINTSRKTVIDCSISSDKFEYLFNFDNTFEIHDDIEVLKRMGMSFGLESGKCSLEDLKIARSLVPKALEGYITDISTGPSWLNQGLLLNSTQSVSNLDPTTGATVPQSSVNQGLCLDAEVALATGQLPASNSHQSSSAASHFSESRGETPCSFNDEDEEDEEEDPSSPE [S58A] | disrupting interaction |
| MIISTPQRIANSGSVLIGNPYTPAPAMVTQTHIAEAAGWVPSDRKRAREFIDSDFAESKRSKKGDKNGKGLRHFSMKVCEKVQRKGTTSYNEVADELVSEFTNSNNHLAADSAYDQENIRRRVYDALNVLMAMNIISSLPTGKKRNQVDCNSAQECQNLEIEKQRRIERIKQKRAQLQELLLQQIAFKNLVQRNRQNEQQNQGPPAVNSTIQLPFIIINTSRKTVIDCSISSDKFEYLFNFDNTFEIHDDIEVLKRMGMSFGLESGKCSLEDLKIARSLVPKALEGYITDISTGPSWLNQGLLLNSTQSVSNLDPTTGATVPQSSVNQGLCLDAEVALATGQLPASNSHQSSSAASHFSESRGETPCSFNDEDEEDEEEDPSSPE [S56A] | disrupting interaction |

From IntAct's records for PubMed 16482218
